The results in this text go back to patent US20160002317A1.

This experiment has as its target mAG (monomeric Azami-Green) with C-terminal E. coli BirA biotinylation motif and 6xHis tag. The experiment is described as follows: capture of lambda phage on MACS streptavidin beads prebound with biotinylated mAG1; background control.

“phage uninduced (control) for α-mAG1 Fab::calmodulin expression” gave a column output (phage (of 5.5×107 added)) of 20000.
